Results taken from patent WO2011147762A2.

How the values were obtained:
[1] = biological target: ED-B fibronectin antigen protein (recombinant), bound to CNBr activated sepharose 4B (UniProt P02751); assay: ED-B sepharose column, % of total radioactivity bound; Study A; inositol 25 mg/mL; day 1
[2] = biological target: ED-B fibronectin antigen protein (recombinant), bound to CNBr activated sepharose 4B (UniProt P02751); assay: ED-B sepharose column, % of total radioactivity bound; Study A; methionine 5 mg/mL; day 5
[3] = biological target: ED-B fibronectin antigen protein (recombinant), bound to CNBr activated sepharose 4B (UniProt P02751); assay: ED-B sepharose column, % of total radioactivity bound; Study A; sodium thiosulfate 25 mg/mL; day 1
[4] = biological target: ED-B fibronectin antigen protein (recombinant), bound to CNBr activated sepharose 4B (UniProt P02751); assay: ED-B sepharose column, % of total radioactivity bound; Study B3; thioglycerol 10 mg/mL; day 1
[5] = biological target: ED-B fibronectin antigen protein (recombinant), bound to CNBr activated sepharose 4B (UniProt P02751); assay: ED-B sepharose column, % of total radioactivity bound; Study B3; no-excipient control (PBS); day 5
[6] = biological target: ED-B fibronectin antigen protein (recombinant), bound to CNBr activated sepharose 4B (UniProt P02751); assay: ED-B sepharose column, % of total radioactivity bound; Study A; inositol 10 mg/mL; day 3
[7] = biological target: ED-B fibronectin antigen protein (recombinant), bound to CNBr activated sepharose 4B (UniProt P02751); assay: ED-B sepharose column, % of total radioactivity bound; Study A; no-excipient control (saline); day 1
[8] = biological target: ED-B fibronectin antigen protein (recombinant), bound to CNBr activated sepharose 4B (UniProt P02751); assay: ED-B sepharose column, % of total radioactivity bound; Study B3; thioglycerol 10 mg/mL; day 2
[9] = biological target: ED-B fibronectin antigen protein (recombinant), bound to CNBr activated sepharose 4B (UniProt P02751); assay: ED-B sepharose column, % of total radioactivity bound; Study A; trolox 5 mg/mL; day 7
[10] = biological target: ED-B fibronectin antigen protein (recombinant), bound to CNBr activated sepharose 4B (UniProt P02751); assay: ED-B sepharose column, % of total radioactivity bound; Study A; sodium thiosulfate 5 mg/mL; day 3
[11] = biological target: ED-B fibronectin antigen protein (recombinant), bound to CNBr activated sepharose 4B (UniProt P02751); assay: ED-B sepharose column, % of total radioactivity bound; Study A; inositol 5 mg/mL; day 5
[12] = biological target: ED-B fibronectin antigen protein (recombinant), bound to CNBr activated sepharose 4B (UniProt P02751); assay: ED-B sepharose column, % of total radioactivity bound; Study A; sodium thiosulfate 50 mg/mL; day 0
[13] = biological target: ED-B fibronectin antigen protein (recombinant), bound to CNBr activated sepharose 4B (UniProt P02751); assay: ED-B sepharose column, % of total radioactivity bound; Study B3; ascorbic acid 25 mg/mL; day 0
[14] = biological target: ED-B fibronectin antigen protein (recombinant), bound to CNBr activated sepharose 4B (UniProt P02751); assay: ED-B sepharose column, % of total radioactivity bound; Study A; sodium thiosulfate 50 mg/mL; day 7
[15] = biological target: ED-B fibronectin antigen protein (recombinant), bound to CNBr activated sepharose 4B (UniProt P02751); assay: ED-B sepharose column, % of total radioactivity bound; Study B3; thioglycerol 10 mg/mL; day 7
[16] = biological target: ED-B fibronectin antigen protein (recombinant), bound to CNBr activated sepharose 4B (UniProt P02751); assay: ED-B sepharose column, % of total radioactivity bound; Study A; inositol 50 mg/mL; day 0
[17] = biological target: ED-B fibronectin antigen protein (recombinant), bound to CNBr activated sepharose 4B (UniProt P02751); assay: ED-B sepharose column, % of total radioactivity bound; Study A; no-excipient control (saline); day 5
[18] = biological target: ED-B fibronectin antigen protein (recombinant), bound to CNBr activated sepharose 4B (UniProt P02751); assay: ED-B sepharose column, % of total radioactivity bound; Study A; methionine 25 mg/mL; day 3
[19] = biological target: ED-B fibronectin antigen protein (recombinant), bound to CNBr activated sepharose 4B (UniProt P02751); assay: ED-B sepharose column, % of total radioactivity bound; Study A; sodium thiosulfate 10 mg/mL; day 3
[20] = biological target: ED-B fibronectin antigen protein (recombinant), bound to CNBr activated sepharose 4B (UniProt P02751); assay: ED-B sepharose column, % of total radioactivity bound; Study B3; no-excipient control (PBS); day 2
[21] = biological target: ED-B fibronectin antigen protein (recombinant), bound to CNBr activated sepharose 4B (UniProt P02751); assay: ED-B sepharose column, % of total radioactivity bound; Study A; methionine 10 mg/mL; day 3
[22] = biological target: ED-B fibronectin antigen protein (recombinant), bound to CNBr activated sepharose 4B (UniProt P02751); assay: ED-B sepharose column, % of total radioactivity bound; Study A; maltose 5 mg/mL; day 7
[23] = biological target: ED-B fibronectin antigen protein (recombinant), bound to CNBr activated sepharose 4B (UniProt P02751); assay: ED-B sepharose column, % of total radioactivity bound; Study A; sodium thiosulfate 50 mg/mL; day 1
[24] = biological target: ED-B fibronectin antigen protein (recombinant), bound to CNBr activated sepharose 4B (UniProt P02751); assay: ED-B sepharose column, % of total radioactivity bound; Study A; inositol 5 mg/mL; day 7
[25] = biological target: ED-B fibronectin antigen protein (recombinant), bound to CNBr activated sepharose 4B (UniProt P02751); assay: ED-B sepharose column, % of total radioactivity bound; Study A; maltose 5 mg/mL; day 5
[26] = biological target: ED-B fibronectin antigen protein (recombinant), bound to CNBr activated sepharose 4B (UniProt P02751); assay: ED-B sepharose column, % of total radioactivity bound; Study A; sodium thiosulfate 25 mg/mL; day 0
[27] = biological target: ED-B fibronectin antigen protein (recombinant), bound to CNBr activated sepharose 4B (UniProt P02751); assay: ED-B sepharose column, % of total radioactivity bound; Study A; inositol 5 mg/mL; day 1
[28] = biological target: ED-B fibronectin antigen protein (recombinant), bound to CNBr activated sepharose 4B (UniProt P02751); assay: ED-B sepharose column, % of total radioactivity bound; Study A; methionine 5 mg/mL; day 1

Chain of 131I L19-SIP (radioiodinated L19 SIP homodimer) (chain): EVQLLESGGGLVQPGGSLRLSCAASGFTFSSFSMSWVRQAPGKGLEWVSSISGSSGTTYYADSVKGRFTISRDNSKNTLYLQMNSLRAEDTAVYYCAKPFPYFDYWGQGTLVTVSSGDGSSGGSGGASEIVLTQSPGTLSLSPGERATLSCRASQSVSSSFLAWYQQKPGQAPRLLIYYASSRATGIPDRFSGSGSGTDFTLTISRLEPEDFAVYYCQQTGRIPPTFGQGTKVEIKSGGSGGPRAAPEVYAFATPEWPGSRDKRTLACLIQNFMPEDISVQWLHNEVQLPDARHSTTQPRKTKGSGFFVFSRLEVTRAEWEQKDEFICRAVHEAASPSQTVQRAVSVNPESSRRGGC
Chain of 131I L19-SIP (radioiodinated L19 SIP homodimer) (chain): as above
Chain of UniProt P02751 (P02751 1266-1356 limits assumed): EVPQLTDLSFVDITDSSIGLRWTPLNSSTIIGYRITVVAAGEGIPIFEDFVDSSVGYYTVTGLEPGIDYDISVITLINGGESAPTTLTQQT

131I L19-SIP (radioiodinated L19 SIP homodimer)
Immunoreactivity (%) [1]: 88.7% | Immunoreactivity (%) [2]: 62.6% | Immunoreactivity (%) [3]: 95% | Immunoreactivity (IR) (%) [4]: 60.7% | Immunoreactivity (IR) (%) [5]: 56.4% | Immunoreactivity (%) [6]: 70.4% | Immunoreactivity (%) [7]: 81.6% | Immunoreactivity (IR) (%) [8]: 58.4% | Immunoreactivity (%) [9]: 52.9% | Immunoreactivity (%) [10]: 83.5% | Immunoreactivity (%) [11]: 56.2% | Immunoreactivity (%) [12]: 95.8% | Immunoreactivity (IR) (%) [13]: 74.1% | Immunoreactivity (%) [14]: 88.2% | Immunoreactivity (IR) (%) [15]: 47.1% | Immunoreactivity (%) [16]: 92.3% | Immunoreactivity (%) [17]: 47.6% | Immunoreactivity (%) [18]: 79.6% | Immunoreactivity (%) [19]: 88.5% | Immunoreactivity (IR) (%) [20]: 71.3% | Immunoreactivity (%) [21]: 75.7% | Immunoreactivity (%) [22]: 50% | Immunoreactivity (%) [23]: 96.9% | Immunoreactivity (%) [24]: 56.2% | Immunoreactivity (%) [25]: 57% | Immunoreactivity (%) [26]: 96.4% | Immunoreactivity (%) [27]: 87.1% | Immunoreactivity (%) [28]: 88%
